Results taken from US20110286916A1 (published 2011).
Like-named read-outs stand apart in the source and are kept apart here.

Key:
[1] = target: T1, human full-length Notch3 with C-terminal FLAG tag, stably expressed on 293 FlpIn (TREx) cells (human, UniProt Q9UM47 40-2321); assay: FACS, phage scFv
T1 construct: whole, on cells; made by the same strategy as the Notch1 line; also called 293-N3; hN3

[2] = target: T2, human full-length Notch1 with C-terminal FLAG tag, stably expressed on 293 FlpIn (TREx) cells (human, UniProt P46531 19-2555); assay: FACS, phage scFv
T2 construct: tetracycline/doxycycline-induced expression from pcDNA5/FRT/TO-HN1+FLAG; also called hN1; 293_N1

[3] = target: T3, human Notch3-Gal4 chimeric receptor on U2OS FlpIn TREx cells (human, UniProt Q9UM47 40-2321); assay: cell-based or functional assay
[4] = target: T3, human Notch3-Gal4 chimeric receptor on …; assay: cell-based or functional assay; remark: listed apart in the source
[5] = target: T4, Notch1 extracellular fragment (amino acid 19-526) Fc fusion protein, R&D Systems 3647-TK (human, UniProt P46531 19-526); assay: BIAcore SPR, Notch1/Fc on CM5, Mab analyte, 1:1 binding
T4 construct: bought protein; also called Notch1/Fc; Notch1-ECD Fc fusion protein; not shown: Fc of the bought fusion protein
Protocol: All experiments were performed at 25° C. at a flow rate of 40 μl/min. […] FC1 was used as the reference cell. Specific signals were the results of differences of signals obtained on FC2 versus FC1. […] The dissociation phase of the analyte was monitored over a period of time ranging 10-30 minutes. Running buffer was also injected under the same conditions as a reference.
Equilibrium dissociation constant (KD) was calculated by the ratio between dissociation (koff) and association (kon) rate constants.

B1: N1wc281 (scFv, V domains shown)
VH: QVQLQESGAEVKKPGASVKVSCRASGYTFTTNSLHWVRQAPGQGLDWMGVINPRDGSATVAQKFQGRITMTSDTSTSTVFLALSSLTSDDTGVYFCARDGLDYRDTSRILAPTDVWGRGTLVTVSS
VL: QSVLTQPPSVSVSPGQTASITCSGDKLGDKYTFWYQQKPGQSPVLIIYQDTKRPSGIPERFSGSNSGNTATLTISGTQAMDEADYYCQAWDSNTDHVIFGGGTKLTVL
notes: phage scFv
binding result [1]: binds
binding result [2]: binds

B2: N1wc586 (scFv, V domains shown)
VH: QVQLVQSGPEVKKPGASVKVSCKAAGYTFPDFYMHWVRQAPGKGPEWVGWINSNSGSTRLAERLEGRVTLTRDTSISTAYMELTSLTSDDTAVYYCARGAYDYVWGTSRYVADAFDIWGQGTLVTVSP
VL: DIVMTQSPSTLSASVGDRVTITCRASQGISSWLAWYQQKPGRAPKVLIYKASTLESGVPSRFSGSGSGTDFTLTISSLQPEDFATYYCQQSYSTPWTFGQGTKLEIK
notes: phage scFv
binding result [1]: binds
binding result [2]: binds

B3: N1wc535 (scFv, V domains shown)
VH: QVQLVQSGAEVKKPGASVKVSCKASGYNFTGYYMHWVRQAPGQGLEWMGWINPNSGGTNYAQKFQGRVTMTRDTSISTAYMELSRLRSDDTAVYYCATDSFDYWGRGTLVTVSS
VL: QSVLTQPPSASGTPGQRVTLSCSGSSSNIGSNTVNWYQQLPGTAPKVLIYSDNQRPSGVPDRFSGSKSGTSASLAISGLQSDDEAVYYCAGWDDSLNAYLFGTGTKVTVL
notes: phage scFv
binding result [1]: binds
binding result [2]: binds

B4: N1wc621 (scFv, V domains shown)
VH: EVQLVQSGAEVKKPGASVKVSCKASGYTFTGYYIHWVRQAPGQGLEWMGWISPNSGVTNYAQRFQGRVTMSRDTSITTAYMELNRLGSDDTAVYYCAREGREDGVLFDYWGRGTLVTVSS
VL: QAVLTQPSSVSGAPGQTVTISCAGSSSNLGAGYDAHWYQHLPGAVPRLLIYNNSKRPSGVPDRFSASKSGSSASLAITGLQPEDEADYYCQTYDTRLSGSMLFGGGTKVTVL
notes: phage scFv
binding result [1]: binds
binding result [2]: binds

B5: WC-629 (antibody, human IgG1, lambda, V domains shown)
VH: EVQLVQSGAEVKKPGSSVKVSCKASGGTLSSYTVSWLRQAPGQGLEWMGRIIPILDRANYAQKFQGRVTITADKSTSTAYMELNSLRSDDTAVYYCARSIGAAGDGVWFDPWGQGTMVTVSS
VL: QAVLTQPSSVSGAPGQRVTISCTGSSSNIGAGYDVHWYQQLPGTAPKLLIFDNKNRPSGVPDRFSGSNSGTSASLAITGLQAEDEAEYYCQSYDNNLSGRVFGGGTKLTVLQ
hN3, inhibition of Luc activity at [166 nM] Mab [3]: < 10%

B6: FL-SKNAS-C2-384 (antibody, human IgG1, lambda, V domains shown)
VH: EVQLVQSGAEVKKPGSSVKVSCKASGGTLSSSAISWVRQAPGEGLEWMGGIIPMFDSTNYAQKFQGRVTITADESTSTAFMELSSLRSDDTAVYYCGRDPYYDRLSGGGYMDVWGQGTLVTVSS
VL: SYVLTQPPSVSGALRQTATVTCTGNSSNVGNQGAAWLRQHQGRPPKLLSYRNNDRPSGVSQRFSASTSGNTASLTITGLQSEDEADYFCSAWDSSRSGWVFGGGTKLTVLG
hN3, inhibition of Luc activity at [166 nM] Mab [4]: < 5%

B7: hN1wc-179 (antibody, human IgG1, lambda, V domains shown)
VH: EVQLVQSGAEVKKPGASVKVSCKASGYNFTGYYMHWVRQAPGQGLEWMGWINPNSGGTNYAQKFQGRVTMTRDTSISTAYMELSRLRSDDTAVYYCATDSFDYWGQGTMVTVSS
VL: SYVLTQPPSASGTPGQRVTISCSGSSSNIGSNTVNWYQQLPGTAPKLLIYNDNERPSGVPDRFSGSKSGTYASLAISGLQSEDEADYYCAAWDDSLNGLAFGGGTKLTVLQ
Kd [5]: 7360 pM
koff [5]: 0.00363 s⁻¹
kon [5]: 493000 M⁻¹ s⁻¹

B8: N1wc295 (scFv, V domains shown)
VH: QVQLQQSGAEVKKPGASVKVSCKASGYNFTGYYMHWVRQAPGQGLEWMGWINPNSGGTNYAQNFQGRVTMTRDTSISTAYMELSRLRSDDTAVYYCATDSFDYWGRGTMVTVSS
VL: QSVLTQPPSASGTPGQRVTISCSGNRSNIGSNTVNWYQQLPGTAPKLLIYSNDQRPSGVPDRFSGSKSGTSASLTISGLQSDDEADFYCAAWDDNLNGYVFGSGTKVTVL
notes: phage scFv
binding result [1]: binds
binding result [2]: binds

B9: N1wc319 (scFv, V domains shown)
VH: QVQLVQSGAEVEKPGASVKVSCKASGYNFTGYYMHWVRQAPGQGLEWMGWINPNSGGTNYAQKFQGRVTMTRDTSISTAYMELSRLRSDDTAVYYCATDSFDYWGRGTLVTVSS
VL: QSVLTQPPSSSGTPGQRVTISCSGSSSNIGSNSVNWYQQLPGAAPKLLIYSDNQRPSGVPDRFSASKSYTSASLAISGLQSGDEADYFCATWDDSLTGLVFGGGTKLTVL
notes: phage scFv
binding result [1]: binds
binding result [2]: binds

B10: HN1S3-133 (antibody, human IgG1, lambda, V domains shown)
VH: QVQLVQSGPEVKKPGTSVKVSCKASGFTFTSSAVQWVRQARGQRLEWIGWIVVGSGNTNYAQKFQERVTITRDMSTSTAYMELSSLRSEDTAVYYCVADTVYWGQGTLVTVSS
VL: QSVLTQPPSVSEAPRQRVTISCSGSSSNIGNNAVNWYQQLPGEAPKLLIYYDDLLPSGVSDRFSGSKSGSSASLAISGLQAEDEADYYCATWDDSLNAWVFGGGTKVTVLQ
Kd [5]: 649 pM
koff [5]: 0.0004 s⁻¹
kon [5]: 616000 M⁻¹ s⁻¹

B11: HN1S3-147 (antibody, human IgG1, lambda, V domains shown)
VH: QVQLVQSGPEVKKPGTSVKVSCKASGFTFTSSAVQWVRQARGQRLEWIGWIVVGSGNTNYAQKFQERVTITRDMSTSTAYMELSSLRSEDTAVYYCVADTVYWGKGTLVTVSS
VL: not shown
Kd [5]: 269 pM
koff [5]: 0.000285 s⁻¹
kon [5]: 1.06e+06 M⁻¹ s⁻¹

B12: N1wc570 (scFv, V domains shown)
VH: QVQLVQSGPEVKKPGTSVKVSCKASGFTFTSSAVQWVRQARGQRLEWIGWIVVGSGNTNYAQKFQERVTITRDMSTSTAYMELSSLRSEDTAVYYCVADTVYWGRGTMVTVSS
VL: QSVLTQPPSASATPGQTVTISCSGSTSNIGNNNVNWYQQVPGTAPKLLMYSNNQRPSGVPDRFSGSRSGTSASLAITALQSEDEADYYCATWDDSLSAWVFGGGTKVTVL
notes: phage scFv
binding result [1]: binds
binding result [2]: binds

B13: N1wc301 (scFv, V domains shown)
VH: QVQLQQSGAEVKKPGASVKVSCKASGYIFGTYAIHWVRQAPGQSLEWMGWINAGTGNTKYSQKFQGRVTITMDTSATTAYMELSSLRSGDTAVYYCTRGDYYDSRGYYNRFDYWGRGTLVTVSS
VL: QSVVTQPPSASGTPGQRVTISCSGSSSNIGKNNVYWYQQLPGAAPKLLIYRNHERASGVPDRFSGSKSGTSASLAISGLQSEDEADYYCAARDDSLNGYVFGTGTKVTVL
notes: phage scFv
binding result [1]: binds
binding result [2]: binds

B14: WC-75 (antibody, human IgG1, lambda, V domains shown)
VH: GVQLVQSGGGLVQPGGSLRLSCAASGFTFDDYAMHWVRQAPGKGLEWVSSISWHSRTIAYADSVKGRFSISRDNAKNSLYLQMNSLRPEDTAVYYCAKASYLSTSSSLDYWGRGTLVTVSS
VL: QSVLTQPGSVSGSPGQSITISCTGTSSDVGGYNYVSWYQQHPGKAPKLMIYEGSKRPSGVSNRFSGSKSGNTASLTISGLQAEDEADYYCSSYTTRSTRVFGGGTKLTVLQ
hN3, inhibition of Luc activity at [166 nM] Mab [3]: < 10%

B15: N1wc441 (scFv, V domains shown)
VH: QVQLVQSGAEVKKPGASVKVSCKAPGYSFTDYYLHWVRQAPGIGLEWVGWINPNNGGTNYAQKFRGRVTMTRDTAINTAYMDMRWLRSDDTAVYYCATDGPPGTGNAFDIWGRGTLVTVSS
VL: SYELTQPPSVSVSPGQTARITCSGDALPDKYVHWYQQKSGQAPVLVLFDDSKRPSGIPERFSGSSSGTVATLIISGAQVEDEGDFFCYSTDSSGNERVFGGGTKLTVL
notes: phage scFv
binding result [1]: binds
binding result [2]: binds

B16: N1wc289 (scFv, V domains shown)
VH: QVQLVQSGAEVKKPGTTVKISCKVSGYKFTDYYIHWVRQAPGKGLEWMGFVDPTDDETRFAEKFQGRLTMTADTSRDTASMELSSLRSEDTAVYYCIRGIAALADWGRGTMVTVSS
VL: QAVLTQPSSLSASPGASASLTCTLRSDINLETSRIYWFQQKPGSPPRYLLRYQSDSDNNLDSGVPSRFSGSKDASANAGILLISGVQSEDEADYHCMIWHSGGSVFGGGTKVTVL
notes: phage scFv
binding result [1]: binds
binding result [2]: binds

B17: N1wc39 (scFv, V domains shown)
VH: EVQLVQSGAEVKKPGASVKLSCKTSGHTFTNYAFHWLRQAPGQRPEWLGWINADNGNTKYSQSFQDRVTITRDISANTAYMEMSRLKSEDTAYYYCARDPWSGVLDHWGKGTLVTVSS
VL: DIQLTQSPSSVSASIGDTVTITCRASQNINKWLAWYQQKPGKAPYLLISTASNLQSGVPSRFSGTGSGTAFTLTISRVQPEDFANYYCQQAFSFPITFGQGTRLEIK
notes: phage scFv
binding result [1]: binds
binding result [2]: binds

B18: A673-C2-110 (antibody, human IgG1, lambda, V domains shown)
VH: QVQLVQSGTEVKKPGASVRVSCKPSADTFTSYYVHWVRQAPGQGLEWMGTINPTGTYTRYAQQFQGRVTVTRDTSTSSVYMELSSLRSEDSAVYYCARDVRPYTAMYSFDNWGRGTTVTVSS
VL: SYVLTQPPSVSVSPGQTATITCSGDALPKQYANWYQQKPGQAPVLMIYKDSDRPSGIPERFSGSSSGTKATLTISGVQAEDEADYYCQSADNSGTNYVFGTGTKLTVLG
hN3, inhibition of Luc activity at [166 nM] Mab [4]: < 10%

B19: N1wc45 (scFv, V domains shown)
VH: EVQLVQSGAEVKKPGASVKVSCKASGYSFRSYGIVWVRQAPGQGLEWMGWISAYNGNTNYAQKLQGRVTMTTDTSTSTAYMELRSLRSDDTAVYYCVRGDRHYDILTGYSPVWFDPWGKGTTVTVSS
VL: SSELTQDPAVSVALGQTVRITCQGDSLRSYYASWYQQKPGQAPVLVIYGKNNRPSGIPDRFSGSSSGNTASLTITGAQAEDEADYYCNSRDSSGNHVVFGGGTKLTVL
notes: phage scFv
binding result [1]: binds
binding result [2]: binds
